# Test results: patent publication US20190002562A1 (INTERVET, published 2019)
# T1: canine PD-1 (canine)
# T1 construct: also called canine PD-1 antigen; cPD-1
# T1 chain: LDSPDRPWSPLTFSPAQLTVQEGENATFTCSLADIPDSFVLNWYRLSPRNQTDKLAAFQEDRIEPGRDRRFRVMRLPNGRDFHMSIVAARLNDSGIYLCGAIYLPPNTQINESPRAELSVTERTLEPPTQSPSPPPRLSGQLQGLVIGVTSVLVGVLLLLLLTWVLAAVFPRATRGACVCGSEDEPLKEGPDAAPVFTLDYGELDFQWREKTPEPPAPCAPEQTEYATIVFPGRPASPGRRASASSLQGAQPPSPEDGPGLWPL
# Tests used:
# canine PD-1 = target: T1, canine PD-1; experiment: SPR (Biacore T200), canine PD-1 amine-coupled, antibody as analyte, 1:1 fit
# [1] = target: T2, recombinant human CD64 protein (R&D systems) (human, UniProt P12314 16-288); experiment: ELISA: antibody titrated on coated PD-1 HIS, then recombinant human CD64 at 1 ug/mL, biotinylated anti-CD64 and streptavidin-HRP
# T2 construct: Bought protein; also called FcγRI; FcRγI
# T2 sequence (P12314 16-288 limits assumed): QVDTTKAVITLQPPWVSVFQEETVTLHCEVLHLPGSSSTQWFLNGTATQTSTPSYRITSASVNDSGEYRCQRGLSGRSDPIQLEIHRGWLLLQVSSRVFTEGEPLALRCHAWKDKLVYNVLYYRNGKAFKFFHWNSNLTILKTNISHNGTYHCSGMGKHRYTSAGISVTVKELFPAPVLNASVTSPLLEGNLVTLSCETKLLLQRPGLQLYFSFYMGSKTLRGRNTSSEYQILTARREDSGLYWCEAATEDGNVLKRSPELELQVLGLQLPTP
# Protocol: (§1) Binding to FcRγI is a measure of the ability of an antibody to mediate ADCC. In order to assess this property for the caninized antibodies an assay to measure binding of caninized antibodies to FcγRI was conducted as follows: Coat 96-well plates with 100 μl per well of 2.5 μg/mL PD-1 HIS. Incubate at 2-7° C. overnight. Equilibrate the plates to room temp for 15 minutes. Wash plates 3× with phosphate buffered saline containing 0.05% Tween® 20 (PBST) and then block the wells using 200 μL/well of 5% NFDM (Non Fat Dried Milk). Incubate for 60 minutes at 36-38° C. Wash 3× with PBST. Make 2-fold dilution of antibodies starting at 1 μg/mL in 5% NFDM. Add 100 μL/well of diluted antibodies. Incubate for 60 minutes at 36-38° C. Wash 6× with PBST. Add 100 μL/well of recombinant human CD64 protein (R&D systems) diluted to 1 μg/mL. Incubate for 60 minutes at 36-38° C. Wash 6× with PBST. Add 100 μL/well biotinylated-anti-CD64 antibody (R&D systems) diluted to 1:3000. Incubate for 60 minutes at 36-38° C. Wash 6× with PBST. Add 100 μL/well Streptavidin-HRP antibody (R&D systems) diluted to 1:7500. Incubate for 60 minutes at 36-38° C. Wash 6× with PBST. Add 100 μL/well TMB substrate. Incubate for 10 minutes at 15-30° C. Read plates using ELISA plate reader at 450-540 nm.
# [2] = target: T2, recombinant human CD64 protein (R&D …); experiment: ELISA: antibody captured on PD-1 HIS, recombinant human CD64 added
# Protocol: as §1
Binder,binding result [1],other results
"Murine 3B6 (antibody, V domains shown) VH: QIQLVQSGPELKKPGETVKISCKASGYTFTTYGMSWVKQAPGKGLKWMGWINIYSGIPTYADDFKGRFAFSLETSASTAYLQIDNLKNEDTATYFCARFDGPDYWGQGTTLTVSS VL: DIVMTQSPSSLAVSVGRKVTMSCKSSQSLLNSVNQKNYLAWYQQKPGQSPKVLVYFASARVSGVPDRFIGSGSGTDFTLAISSVQAEDLTTYFCQQYFSTPLTFGAGTKLELK",,Kd (canine PD-1): 2 nM; koff (canine PD-1): 3.4e-05 s⁻¹; kon (canine PD-1): 18000 M⁻¹ s⁻¹
"can2H9 VH4/VL3 IgGB (antibody, also called 2H9 VH4 IgGB/VL3; caninized 2H9 with un-modified IgGB Fc) heavy: EVQLVQSGGDLVKPGGSVRLSCVASGFNIKNTYMHWVRQAPGKGLQWIGRIAPANVDTKYAPKFQGKATISADTAKNTAYMQLNSLRAEDTAVYYCVLIYYDYDGDIDVWGQGTLVTVSSASTTAPSVFPLAPSCGSTSGSTVALACLVSGYFPEPVTVSWNSGSLTSGVHTFPSVLQSSGLYSLSSMVTVPSSRWPSETFTCNVAHPASKTKVDKPVPKRENGRVPRPPDCPKCPAPEMLGGPSVFIFPPKPKDTLLIARTPEVTCVVVDLDPEDPEVQISWFVDGKQMQTAKTQPREEQFNGTYRVVSVLPIGHQDWLKGKQFTCKVNNKALPSPIERTISKARGQAHQPSVYVLPPSREELSKNTVSLTCLIKDFFPPDIDVEWQSNGQQEPESKYRTTPPQLDEDGSYFLYSKLSVDKSRWQRGDTFICAVMHEALHNHYTQESLSHSPGK light: DIVMTQTPLSLSVSLGEPASISCHASQNINVWLSWYRQKPGQIPQLLIYKASHLHTGVPDRFSGSGSGTDFTLRISRVEADDAGVYYCQQGQSWPLTFGQGTKVEIKRNDAQPAVYLFQPSPDQLHTGSASVVCLLNSFYPKDINVKWKVDGVIQDTGIQESVTEQDSKDSTYSLSSTLTMSSTEYLSHELYSCEITHKSLPSTLIKSFQRSECQRVD",binds,
"can2H9 IgGD VH4/VL3 (antibody, also called can2H9 VH4 IgGD/VL3) heavy chain: EVQLVQSGGDLVKPGGSVRLSCVASGFNIKNTYMHWVRQAPGKGLQWIGRIAPANVDTKYAPKFQGKATISADTAKNTAYMQLNSLRAEDTAVYYCVLIYYDYDGDIDVWGQGTLVTVSSASTTAPSVFPLAPSCGSTSGSTVALACLVSGYFPEPVTVSWNSGSLTSGVHTFPSVLQSSGLYSLSSTVTVPSSRWPSETFTCNVVHPASNTKVDKPVPKESTCKCISPCPVPESLGGPSVFIFPPKPKDILRITRTPEITCVVLDLGREDPEVQISWFVDGKEVHTAKTQPREQQFNSTYRVVSVLPIEHQDWLTGKEFKCRVNHIGLPSPIERTISKARGQAHQPSVYVLPPSPKELSSSDTVTLTCLIKDFFPPEIDVEWQSNGQPEPESKYHTTAPQLDEDGSYFLYSKLSVDKSRWQQGDTFTCAVMHEALQNHYTDLSLSHSPGK light chain: DIVMTQTPLSLSVSLGEPASISCHASQNINVWLSWYRQKPGQIPQLLIYKASHLHTGVPDRFSGSGSGTDFTLRISRVEADDAGVYYCQQGQSWPLTFGQGTKVEIKRNDAQPAVYLFQPSPDQLHTGSASVVCLLNSFYPKDINVKWKVDGVIQDTGIQESVTEQDSKDSTYSLSSTLTMSSTEYLSHELYSCEITHKSLPSTLIKSFQRSECQRVD",no binding (tested: log(nM) about 0.83 (1 ug/mL)),
"can2H9 ADCC(1060) VH4/VL3 (antibody, also called YZZ1060) heavy: EVQLVQSGGDLVKPGGSVRLSCVASGFNIKNTYMHWVRQAPGKGLQWIGRIAPANVDTKYAPKFQGKATISADTAKNTAYMQLNSLRAEDTAVYYCVLIYYDYDGDIDVWGQGTLVTVSSASTTAPSVFPLAPSCGSTSGSTVALACLVSGYFPEPVTVSWNSGSLTSGVHTFPSVLQSSGLYSLSSMVTVPSSRWPSETFTCNVAHPASKTKVDKPVPKRENGRVPRPPDCPKCPAPEMLGGPSVFIFPPKPKDTLLIARTPEVTCVVVDLDPEDPEVQISWFVDGKQMQTAKTQPREEQFNGTYRVVSVLPIGHQDWLKGKQFTCKVNNKGLPSPIERTISKARGQAHQPSVYVLPPSREELSKNTVSLTCLIKDFFPPDIDVEWQSNGQQEPESKYRTTPPQLDEDGSYFLYSKLSVDKSRWQRGDTFICAVMHEALHNHYTQESLSHSPGK light: DIVMTQTPLSLSVSLGEPASISCHASQNINVWLSWYRQKPGQIPQLLIYKASHLHTGVPDRFSGSGSGTDFTLRISRVEADDAGVYYCQQGQSWPLTFGQGTKVEIKRNDAQPAVYLFQPSPDQLHTGSASVVCLLNSFYPKDINVKWKVDGVIQDTGIQESVTEQDSKDSTYSLSSTLTMSSTEYLSHELYSCEITHKSLPSTLIKSFQRSECQRVD",binds,
"can2H9 ADCC (1061) VH4/VL3 (antibody, also called can2H9 VH4 IgGB ADCC (1061)/VL3; YZZ1061) heavy: EVQLVQSGGDLVKPGGSVRLSCVASGFNIKNTYMHWVRQAPGKGLQWIGRIAPANVDTKYAPKFQGKATISADTAKNTAYMQLNSLRAEDTAVYYCVLIYYDYDGDIDVWGQGTLVTVSSASTTAPSVFPLAPSCGSTSGSTVALACLVSGYFPEPVTVSWNSGSLTSGVHTFPSVLQSSGLYSLSSMVTVPSSRWPSETFTCNVAHPASKTKVDKPVPKRENGRVPRPPDCPKCPAPEMLGGPSVFIFPPKPKDTLLIARTPEVTCVVVDLDPEDPEVQISWFVDGKQMQTAKTQPREEQFNGTYRVVSVLPIGHQDWLKGKQFTCKVNNKALASPIERTISKARGQAHQPSVYVLPPSREELSKNTVSLTCLIKDFFPPDIDVEWQSNGQQEPESKYRTTPPQLDEDGSYFLYSKLSVDKSRWQRGDTFICAVMHEALHNHYTQESLSHSPGK light: DIVMTQTPLSLSVSLGEPASISCHASQNINVWLSWYRQKPGQIPQLLIYKASHLHTGVPDRFSGSGSGTDFTLRISRVEADDAGVYYCQQGQSWPLTFGQGTKVEIKRNDAQPAVYLFQPSPDQLHTGSASVVCLLNSFYPKDINVKWKVDGVIQDTGIQESVTEQDSKDSTYSLSSTLTMSSTEYLSHELYSCEITHKSLPSTLIKSFQRSECQRVD",binds,
"can2H9 ADCC mut-1 VH4/VL3 (antibody, also called can2H9VH4 IgGB ADCC (mut-1)/VL3; YZZ1057/Mut-1) heavy: EVQLVQSGGDLVKPGGSVRLSCVASGFNIKNTYMHWVRQAPGKGLQWIGRIAPANVDTKYAPKFQGKATISADTAKNTAYMQLNSLRAEDTAVYYCVLIYYDYDGDIDVWGQGTLVTVSSASTTAPSVFPLAPSCGSTSGSTVALACLVSGYFPEPVTVSWNSGSLTSGVHTFPSVLQSSGLYSLSSMVTVPSSRWPSETFTCNVAHPASKTKVDKPVPKRENGRVPRPPDCPKCPAPEMLGGPSVFIFPPKPKDTLLIARTPEVTCVVVALDPEDPEVQISWFVDGKQMQTAKTQPREEQFNGTYRVVSVLPIGHQDWLKGKQFTCKVNNKALPSPIERTISKARGQAHQPSVYVLPPSREELSKNTVSLTCLIKDFFPPDIDVEWQSNGQQEPESKYRTTPPQLDEDGSYFLYSKLSVDKSRWQRGDTFICAVMHEALHNHYTQESLSHSPGK light: DIVMTQTPLSLSVSLGEPASISCHASQNINVWLSWYRQKPGQIPQLLIYKASHLHTGVPDRFSGSGSGTDFTLRISRVEADDAGVYYCQQGQSWPLTFGQGTKVEIKRNDAQPAVYLFQPSPDQLHTGSASVVCLLNSFYPKDINVKWKVDGVIQDTGIQESVTEQDSKDSTYSLSSTLTMSSTEYLSHELYSCEITHKSLPSTLIKSFQRSECQRVD",,binding result [2]: binds
"can2H9 ADCC(1059) VH4/VL3 (antibody, also called can2H9 VH4 IgGB ADCC(1059)/VL3; YZZ1059) heavy: EVQLVQSGGDLVKPGGSVRLSCVASGFNIKNTYMHWVRQAPGKGLQWIGRIAPANVDTKYAPKFQGKATISADTAKNTAYMQLNSLRAEDTAVYYCVLIYYDYDGDIDVWGQGTLVTVSSASTTAPSVFPLAPSCGSTSGSTVALACLVSGYFPEPVTVSWNSGSLTSGVHTFPSVLQSSGLYSLSSMVTVPSSRWPSETFTCNVAHPASKTKVDKPVPKRENGRVPRPPDCPKCPAPEMLGGASVFIFPPKPKDTLLIARTPEVTCVVVDLDPEDPEVQISWFVDGKQMQTAKTQPREEQFNGTYRVVSVLPIGHQDWLKGKQFTCKVNNKALPSPIERTISKARGQAHQPSVYVLPPSREELSKNTVSLTCLIKDFFPPDIDVEWQSNGQQEPESKYRTTPPQLDEDGSYFLYSKLSVDKSRWQRGDTFICAVMHEALHNHYTQESLSHSPGK light: DIVMTQTPLSLSVSLGEPASISCHASQNINVWLSWYRQKPGQIPQLLIYKASHLHTGVPDRFSGSGSGTDFTLRISRVEADDAGVYYCQQGQSWPLTFGQGTKVEIKRNDAQPAVYLFQPSPDQLHTGSASVVCLLNSFYPKDINVKWKVDGVIQDTGIQESVTEQDSKDSTYSLSSTLTMSSTEYLSHELYSCEITHKSLPSTLIKSFQRSECQRVD",binds,
